B1: CCNA1 341-351 peptide SLIAAAAFCLA (peptide)
peptide: SLIAAAAFCLA
notes: Synthetic peptide; also called the 11-mer
B2: CCNA1 227-235 peptide FLDRFLSCM (peptide)
peptide: FLDRFLSCM
notes: Synthetic peptide; also called the 9-mer

For this test, the target named is T1, HLA A*0201 on T2 cells (human).
T1 construct: MHC class I on the surface of T2 cells; surface level read with FITC-labeled anti-HLA A,B,C (W6/32)
The test can be described thus: HLA stabilization assay on T2 cells, flow cytometry with anti-HLA A,B,C (W6/32). The procedure: T2 cells were pulsed with 100 μg/ml peptide in serum-free RPMI containing 1 μg/ml β-2-microglobulin (Sigma) for 16 h. Cells were then washed and incubated for 4 h in the presence of 5 μg/ml brefeldin A (Sigma), and then stained with FITC-labeled anti-HLA A, B, C (clone W6/32, BD Bioscience).
As for B1, the binding result is “binds”.

As for SLIAAAAFCL [10-mer SLIAAAAFCL (10-mer 1)], the binding result is reported as “binds”.

In the case of B2, the binding result is given as “binds”.

The record behind these values is US20140322253A1 (FRED HUTCHINSON CANCER RESEARCH CENTER, published 2014).
